From US20240166747A1 come the findings set out here.

As usually defined, the IC50 is the point on the concentration scale where inhibition reaches its midpoint. A word on the EC50: it is the concentration needed to bring the measured effect to its halfway point. The low end stands for higher potency in that assay, the high end for lower potency in that assay.

Experiment [1] concerns the target human CD96v2 expressed on cells (human) (UniProt P40200). Put plainly: competition flow cytometry, inhibition of CD155-Fc-AF647 binding to CHO cells expressing human CD96v2. (In general: A flow cytometer gives signals particle by particle.)
Experiment [2] shares this target. Put plainly: flow cytometry, CHO cells expressing human CD96v2.
Experiment [3] deals with native human CD96 on primary human T cells and NK cells (human) (UniProt P40200). Nature of the experiment: flow cytometry, primary human CD3+ T cells.

Numbering of substitutions follows the chain as printed.

B1: 42Y073-86F08-3 (antibody, V domains shown)
VH: QVQLVQSGAEVKKPGSSVKVSCKASGGTFVNYAISWVRQAPGQGLEWMGGIIPALGTANYAQKFQGRVTITADESTSTAYMELSSLRSEDTAVYYCARGAGYYGDKDPMDVWGQGTTVTVSS
VL: DIQLTQSPSSLSASVGDRVTITCRASQSISSYLNWYQQKPGKAPKLLIYAASSLQSGVPSRFSGSGSGTDFTLTISSLQPEDFATYYCQQVLHTITFGGGTKVEIK
As for B1, in experiment [1], the half-maximal inhibitory concentration (IC50) was found to be 0.26 nM. The same molecule gave an EC50 in experiment [2] of 0.04 nM.

B2: 42Y073-86F08-4 (antibody, V domains shown)
VH: B1 VH with V30S, N31E, S35H, G50N, A54I, L55F, N59G
VL: B1 VL
B2: the half-maximal inhibitory concentration (IC50) in experiment [1] turned out to be 0.38 nM. In experiment [2], the EC50 amounted to 0.04 nM.

B3: 42Y073-86F08-16 (antibody, V domains shown)
VH: B1 VH with V30N, N31E, I52V, A54V, L55F, N59K
VL: B1 VL
With B3, the IC50 in experiment [1] was determined as 0.78 nM. Further, the EC50 in experiment [2] came to 0.03 nM.

B4: 42Y073-86F08-8 (antibody, V domains shown)
VH: B1 VH with V30W, N31L, A54Q
VL: B1 VL
Turning to B4, the half-inhibitory concentration (IC50) in experiment [1] came to 0.93 nM. Also, in experiment [2], the concentration giving a half-maximal response (EC50) was 0.17 nM.

B5: 42Y073-86F08-47 (antibody, V domains shown)
VH: B1 VH with V30S, N31Q, S35H, G50V, A54I, L55F, T57K
VL: B1 VL
Consider B5, for which the IC50 in experiment [1] is 0.17 nM. Besides, in experiment [2], the EC50 came to 0.05 nM.

B6: 42Y073-86F08-17 (antibody, V domains shown)
VH: B1 VH with V30R, N31E, A54V, L55F
VL: B1 VL
With B6, the 50% inhibitory concentration (IC50) in experiment [1] came to 0.52 nM. This molecule also displayed a concentration for a half-maximal effect (EC50) in experiment [2] of 0.1 nM.

B7: 42Y073-86F08-22 (antibody, V domains shown)
VH: B1 VH with S16A, G27Y, V30D, N31S, I34M, S35H, A54I, L55F, N59W
VL: B1 VL
In the case of B7, the EC50 stood at 0.1 nM in experiment [3] and 0.03 nM in experiment [2]. In experiment [1], this molecule showed an IC50 of 0.41 nM.

B8: 42Y073-1A01-85 (antibody, V domains shown)
VH: QVQLVQSGAEVKKPGASVKVSCKASGYTFTSYPMHWVRQAPGQGLEWMGIINPSGGFTSYAQKFQGRVTMTRDTSTSTVYMELSSLRSEDTAVYYCARETAYYTTKGNWFDPWGQGTLVTVSA
VL: DIQMTQSPSSLSASVGDRVTITCRASQSISSYLNWYQQKPGKAPKLLIYAASSLQSGVPSRFSGSGSGTDFTLTISSLQPEDFATYYCQQSLYPPRTFGGGTKVEIK
In experiment [1], B8 had an IC50 of 0.03 nM. This molecule returned a concentration giving a half-maximal response (EC50) in experiment [2] of 0.47 nM.

B9: 42Y073-86F04-23 (antibody, V domains shown)
VH: QVQLVQSGAEVKKPGSSVKVSCKASGGTFSGYPISWVRQAPGQGLEWMGGIIPIMGTARYAQKFQGRVTITADESTSTAYMELSSLRSEDTAVYYCARLLGESGMDVWGQGTTVTVSS
VL: B8 VL with S91P, L92Y, Y93F, P94S, R96P
B9 had an IC50 in experiment [1] of 0.76 nM. The molecule also displayed an EC50 in experiment [2] of 0.06 nM.

B10: 42Y073-1A01-100 (antibody, V domains shown)
VH: B8 VH with S31T, P33R, F57L, S59Q, A123S
VL: B8 VL
B10 registered a half-inhibitory concentration (IC50) in experiment [1] of 0.06 nM. Moreover, in experiment [2], the EC50 came out at 0.02 nM.

B11: 42Y073-86F04-6 (antibody, V domains shown)
VH: B9 VH with Y32H, P33A, M55F, T57R
VL: B8 VL with S91P, L92Y, Y93F, P94S, R96P
Molecule B11 displayed an IC50 in experiment [1] of 0.25 nM. For the same molecule, in experiment [2], the EC50 came to 0.06 nM.

B12: 42Y073-1A01-191 (antibody, V domains shown)
VH: B8 VH with S31K, P33R, S54Q, F57S
VL: B8 VL
Molecule B12 yielded a 50% inhibitory concentration (IC50) in experiment [1] of 0.03 nM. The molecule also displayed an EC50 in experiment [2] of 0.01 nM.

B13: 42Y073-1A01-97 (antibody, V domains shown)
VH: B8 VH with S31R, Y32A, P33A, S54A, F57Y, A123S
VL: B8 VL
On to B13, for which the half-inhibitory concentration (IC50) in experiment [1] is 0.03 nM. The EC50 in experiment [2] was 0.77 nM.

B14: 42Y073-1A01-103 (antibody, V domains shown)
VH: B8 VH with S31A, P33Q, S54A, F57W, A123S
VL: B8 VL
Consider B14, for which the half-inhibitory concentration (IC50) in experiment [1] was 0.03 nM. In experiment [2], this molecule came in with a concentration giving a half-maximal response (EC50) of 0.02 nM.

B15: 42Y073-86F04-3 (antibody, V domains shown)
VH: B9 VH with G31Y, Y32N, P33A
VL: B8 VL with S91P, L92Y, Y93F, P94S, R96P
Take B15: in experiment [1], the IC50 is 0.31 nM. In experiment [2], the EC50 amounted to 0.04 nM.

B16: 42Y073-86F04-5 (antibody, V domains shown)
VH: B9 VH with G31S, Y32H, P33A, M55F, T57R, A58G, R59K
VL: B8 VL with S91P, L92Y, Y93F, P94S, R96P
B16: in experiment [1], the half-maximal inhibitory concentration (IC50) was 0.38 nM.

B17: 42Y073-86F04-18 (antibody, V domains shown)
VH: B9 VH with G31S, Y32R, P33A
VL: B8 VL with S91P, L92Y, Y93F, P94S, R96P
Molecule B17 came in with an IC50 in experiment [1] of 0.59 nM. The molecule also had an EC50 in experiment [2] of 0.07 nM.

B18: 42Y073-1A01-126 (antibody, V domains shown)
VH: B8 VH with S31R, P33N, I50W, S54A, F57S
VL: B8 VL
With B18, the IC50 in experiment [1] was 0.1 nM. The EC50 in experiment [2] amounted to 0.02 nM.

B19: 42Y073-86F04-4 (antibody, V domains shown)
VH: B9 VH with S30E, G31S, Y32E, P33A, M55F, T57R
VL: B8 VL with S91P, L92Y, Y93F, P94S, R96P
For the molecule B19, the IC50 in experiment [1] is 0.18 nM. Further, the 50% effective concentration (EC50) in experiment [2] amounted to 0.04 nM.
